Data on two molecules can be found in patent US20200354468A1 (US Dept. of Health and Human Services, published 2020).

Experiment [1] addresses T1, BSA-conjugated CD133 immunogenic polypeptide A (Homo sapiens, N-terminal lysine used for conjugation; conjugated to BSA).
T1 construct: The peptide stood in the assays as a BSA conjugate; also called A-BSA; PepA
T1 peptide: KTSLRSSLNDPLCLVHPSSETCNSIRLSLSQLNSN
The experiment is described as follows: direct ELISA, BSA-conjugated peptide coated. On the technique in general: ELISA stands for enzyme-linked immunosorbent assay.

The target in experiment [2] is T2, BSA-conjugated CD133 immunogenic polypeptide B (Homo sapiens, lysine added as C-terminal residue for conjugation; conjugated to BSA).
T2 construct: The peptide stood in the assays as a BSA conjugate; the text gives 615-643; also called B-BSA; Pep B
T2 peptide: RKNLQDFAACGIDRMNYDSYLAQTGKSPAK
The experiment in a line: direct ELISA, BSA-conjugated peptide coated.

For experiment [3], the target named is T3, Recombinant CD133 domain A polypeptide (Homo sapiens, UniProt O43490 180-400, limits assumed).
T3 construct: also called CD133A; recombinant CD133 Extracellular Domain A
T3 sequence: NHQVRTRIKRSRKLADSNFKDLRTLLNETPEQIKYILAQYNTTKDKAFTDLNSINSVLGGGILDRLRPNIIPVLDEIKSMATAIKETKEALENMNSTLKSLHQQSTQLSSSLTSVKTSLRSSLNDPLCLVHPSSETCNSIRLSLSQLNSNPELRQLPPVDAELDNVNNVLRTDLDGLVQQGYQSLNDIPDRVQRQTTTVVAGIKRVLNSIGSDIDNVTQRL
The experiment in a line: direct ELISA, recombinant domain coated. Here is the method: (§1) The cDNAs of IgG heavy and light chains were amplified by polymerase chain reaction (PCR) and cloned into a mammalian expression vector. The recombinant monoclonal antibody was then transiently expressed using a HEK293 cell system. The expressed recombinant antibodies were then tested by ELISA against CD133 immunogenic polypeptides A and B and recombinant domain A and B polypeptides. […] The testing confirmed the specificity of the mAbs. The cDNA was sequenced.

In experiment [4] the target is T4, Recombinant CD133 domain B polypeptide (Homo sapiens, UniProt O43490 515-745).
T4 construct: also called CD133B; recombinant CD133 Extracellular Domain B
T4 sequence: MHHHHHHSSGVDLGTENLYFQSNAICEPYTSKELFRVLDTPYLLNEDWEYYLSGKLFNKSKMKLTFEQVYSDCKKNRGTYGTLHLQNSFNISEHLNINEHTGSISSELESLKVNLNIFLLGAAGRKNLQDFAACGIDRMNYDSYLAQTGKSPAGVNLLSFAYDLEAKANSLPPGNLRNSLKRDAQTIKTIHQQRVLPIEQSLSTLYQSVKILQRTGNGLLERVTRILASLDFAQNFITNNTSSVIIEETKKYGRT
The experiment is described as follows: subclone screening by ELISA and Western blot.

Experiment [5] deals with T4, Recombinant CD133 domain B polypeptide. The experiment in a line: direct ELISA, recombinant domain coated. Here is the method:
as §1

B1: anti-CD133 monoclonal antibody mAb 133-3 (antibody, V domains shown)
VH: QSVEESGGRLVTPGTPLTLTCTVSGFSLSRYAMSWVRQAPGKGLDWIGYIDIGGGAYYASWAKGRFTISETSTTVYLKVNSPTTEDTATYFCARGVANSDIWGPGTLVTVSS
VL: ALVMTQTPSPVSAAVGGTVTINCQSSQSVFNNKWLSWYQQKPGQPPKLLIYFVSTLASGVPSRFKGSGSGTQFTLTISGVQCDDAATYYCQGSDYSSGWYSPFGGGTEVVVEG
notes: Rabbit IgG from a hybridoma, cloned and made recombinantly in HEK293 cells
On to B1, for which the binding result is reported as “no binding” in experiment [1], “binds” in experiment [2], “no binding” in experiment [3] and “binds” in experiment [4].

B2: anti-CD133 monoclonal antibody mAb 47-10 (antibody, V domains shown)
VH: QSVEESGGRLVTPGTPLTLTCTVSGIDLNNYNMQWVRQAPGKGLEWIGATFGSDSIYYATWAKGRFTISKTSTTVDLKMTSLTTEDTATYFCARGGLWGPGTLVTVSS
VL: AQVLTQTASPVSAAVGATVTINCQSSQSVYNNNYLAWFQQKPGQPPKLLIYRASTLASGVSSRFKGSGSGTQFALTISGVQCDDAGTYYCQGEFSCDSADCAAFGGGTEVVVKG
notes: Rabbit IgG from a hybridoma, cloned and made recombinantly in HEK293 cells; also called clone 47-10; mAb subclone 47-10
For the molecule B2, the binding result in experiment [2] and in experiment [5] was “no binding” throughout.
